Test results from patent US11156615B2 (priority 2015, dated 2021).

Tests used:
[1] = Thermostability: mid-point thermal denaturation temperature (Tm) from temperature-dependent fluorescence (Roche LightCycler); format: physicochemical; settings: Acrylodan conjugate; apo-protein
Description: Protein (un)folding is monitored by binding of SYPRO to the unfolded state as a function of temperature. Fluorescence intensity increases upon binding of SYPRO by the unfolded state.
Panels A-C: ttGBP182C.2.0-Imm0; Panels D-F: ttGBP182C.2.0-Imm1 (see FIG. 13). (A) Solution (Tm=347.6K). (B) Immobilized on Nickel-nitriloacetic acid (Ni-NTA) beads (Tm=346.7K). (C) Reconstituted, desiccated Ni-NTA beads (Tm=347.6K). (D) Fluorescence response of ttGGBP5.2 Imm1 immobilized on NHS-functionalized agarose beads. Data was collected on a Roche LightCycler real-time PCS instrument, recording emission intensities at 488 nm and 510 nm as a function of temperature in a 384-well microtiter plate. […] Temperature melts of twelve different wells. Apo protein thermostability as reported by the denaturation mid-point temperature is 349 K, similar to the protein free in solution. […] (F) Representative Langmuir ligand-binding curve extracted from the three-dimensional data.
Temperatures were advanced in 1K steps. […] Under these experimental photobleaching was not observed.

[2] = Glucose binding: isothermal fluorescence titrations, ratiometric (appKd) and monochromatic (trueKd) fits; settings: Acrylodan conjugate, room temperature
Description: 2 For a single glucose-binding site, the fractional saturation is given by
[formula] where ^apoIλ2 and ^satIλ2 are the emission intensities of the monochromatic signal at wavelength λ2 of the ligand-free and ligand-bound protein, respectively.

[3] = Galactose binding: isothermal fluorescence titrations of conjugates; settings: Acrylodan conjugate; for S, selectivity = trueKd(galactose)/trueKd(glucose): S > 1, selective for glucose; for Kd: read-out: Galactose trueKd, monochromatic titration curves, room temperature
[4] = read-out: Glucose appKd, dichromatic ratiometry
[5] = read-out: Glucose trueKd, monochromatic titration curves

Molecule | apoTm [1] [K] | Kd [2, 4] [mM] | Kd [2, 5] [mM] | S, selectivity = trueKd(galactose)/trueKd(glucose) [3] | Kd [3] [mM]
ttGGBP182C.2.0: affinity-tuning mutant, 182C background (R91K, Q148E), SEQ ID NO: 88 and 298 (protein, ttGGBP182C.2.0 (affinity-tuning mutant, 182C background (Table 6) with signal peptide replaced with M and GGSHHHHHH at C-terminus)) MKQLNIGVAIYKFDDTFMTGVRNAMTAEAQGKAKLNMVDSQNSQPTQNDQVDLFITKKMNALAINPVDRTAAGTIIDKAKQANIPVVFFNKEPLPEDMKKWDKVYYVGAKAEQSGILQGQIMADYWKAHPEADKNHDGVMQYVMLMGEPGHQDAILRTQYSIQTVKDAGIKVQELAKDYANCDRVTAHDKMAAWLSSFGDKIEAVFANNDDMALGAIEALKSAGYFTGNKYIPVVGVDATAPGIQAIKDGTLLGTVLNDAKNQAKATFNIAYELAQGITPTKDNIGYDITDGKYVWIPYKKITKDNISDAEQGGSHHHHHH | 346 | 4.5 | 6 | 3.1 | 18.5
ttGGBP182C.2.5: affinity-tuning mutant, 182C background, SEQ ID NO: 92 (protein, ttGGBP182C.2.5 (affinity-tuning mutant, 182C background (Table 6) with signal peptide replaced with M and GGSHHHHHH at C-terminus)) MKQLNIGVAIYKFDDTFMTGVRNAMTAEAQGKAKLNMVDSQNSQPTQNDQVDLFITKKMNALAINPVDRTAAGTIIDKAKQANIPVVFFNKEPLPEDMKKWDKVYYVGAKAEQSGILQGQIMADYWKAHPEADKNHDGVMQYVMLMGEPGQQDAILRTQYSIQTVKDAGIKVQELAKDYANCDRVTAHDKMAAWLSSFGDKIEAVFANNDDMALGAIEALKSAGYFTGNKYIPVVGVDATAPGIQAIKDGTLLGTVLNDAKNQAKATFNIAYELAQGITPTKDNIGYDITDGKYVWIPYKKITKDNISDAEQGGSHHHHHH | 346 | 10.8 | 13 | 1.6 | 20.3
ttGGBP182C.2.3: affinity-tuning mutant, 182C background, SEQ ID NO: 90 (protein, ttGGBP182C.2.3 (affinity-tuning mutant, 182C background (Table 6) with signal peptide replaced with M and GGSHHHHHH at C-terminus)) MKQLNIGVAIYKFDDTFMTGVRNAMTAEAQGKAKLNMVDSQNSQPTQNDQVDLFITKKMNALAINPVDRTAAGTIIDKAKQANIPVVFFNKEPLPEDMKKWDKVYYVGAKAEQSGILQGQIMADYWKAHPEADKNHDGVMQYVMLMGEPGHQDNILRTQYSIQTVKDAGIKVQELAKDYANCDRVTAHDKMAAWLSSFGDKIEAVFANNDDMALGAIEALKSAGYFTGNKYIPVVGVDATAPGIQAIKDGTLLGTVLNDAKNQAKATFNIAYELAQGITPTKDNIGYDITDGKYVWIPYKKITKDNISDAEQGGSHHHHHH | 346 | 16.3 | 19 | 10.9 | 
ttGGBP182C.3: affinity-tuning mutant, 182C background, SEQ ID NO: 97 (protein, ttGGBP182C.3 (affinity-tuning mutant, 182C background (Table 6) with signal peptide replaced with M and GGSHHHHHH at C-terminus)) MKQLNIGVAIYKFDDTFMTGVRNAMTAEAQGKAKLNMVDSQNSQPTQNDQVDLFITKKMNALAINPVDRTAAGTIIDKAKQANIPVVFFNKEPLPEDMKKWDKVYYVGAKAEQSGILQGQIMADYWKAHPEADKNHDGVMQYVMLMGQPGHQDAILRTQYSIQTVKDAGIKVQELAKDYANCDRVTAHDKMAAWLSSFGDKIEAVFANNDDMALGAIEALKSAGYFTGNKYIPVVGVDATAPGIQAIKDGTLLGTVLNDAKNQAKATFNIAYELAQGITPTKDNIGYDITDGKYVWIPYKKITKDNISDAEQGGSHHHHHH | 346 |  | 0.9 |  | 3.1
ttGGBP182C.2.6: affinity-tuning mutant, 182C background, SEQ ID NO: 93 (protein, ttGGBP182C.2.6 (affinity-tuning mutant, 182C background (Table 6) with signal peptide replaced with M and GGSHHHHHH at C-terminus)) MKQLNIGVAIYKFDDTFMTGVRNAMTAEAQGKAKLNMVDSQNSQPTQNDQVDLFITKKMNALAINPVDRTAAGTIIDKAKQANIPVVFFNKEPLPEDMKKWDKVYYVGAKAEQSGILQGQIMADYWKAHPEADKNHDGVMQYVMLMGEPGNQDAILRTQYSIQTVKDAGIKVQELAKDYANCDRVTAHDKMAAWLSSFGDKIEAVFANNDDMALGAIEALKSAGYFTGNKYIPVVGVDATAPGIQAIKDGTLLGTVLNDAKNQAKATFNIAYELAQGITPTKDNIGYDITDGKYVWIPYKKITKDNISDAEQGGSHHHHHH | 347 | 19.2 | 17.9 | 2.9 | 52.6
ttGGBP182C.5: affinity-tuning mutant, 182C background, SEQ ID NO: 99 (protein, ttGGBP182C.5 (affinity-tuning mutant, 182C background (Table 6) with signal peptide replaced with M and GGSHHHHHH at C-terminus)) MKQLNIGVAIYKFDDTFMTGVRNAMTAEAQGKAKLNMVDSQNSQPTQNDQVDLFITKKMNALAINPVDPTAAGTIIDKAKQANIPVVFFNREPLPEDMKKWDKVYYVGAKAEQSGILQGQIMADYWKAHPEADKNHDGVMQYVMLMGQPGHPDAILRTQYSIQTVKDAGIKVQELAKDYANCDRVTAHDKMAAWLSSFGDKIEAVFANNDDMALGAIEALKSAGYFTGNKYIPVVGVDATAPGIQAIKDGTLLGTVLNDAKNQAKATFNIAYELAQGITPTKDNIGYDITDGKYVWIPYKKITKDNISDAEQGGSHHHHHH | 349 | 7.5 | 8.8 | 0.8 | 7.4
ttGGBP182C.2.1: affinity-tuning mutant, 182C background, SEQ ID NO: 89 (protein, ttGGBP182C.2.1 (affinity-tuning mutant, 182C background (Table 6) with signal peptide replaced with M and GGSHHHHHH at C-terminus)) MKQLNIGVAIYKFDDTFMTGVRNAMTAEAQGKAKLNMVDSQNSQPTQNDQVDLFITKKMNALAINPVDRTAAGTIIDKAKQANIPVVFFNKEPLPEDMKKWDKVYYVGAKAEQSGILQGQIMADYWKAHPEADKNHDGVMQYVMLMGEPGHQDSILRTQYSIQTVKDAGIKVQELAKDYANCDRVTAHDKMAAWLSSFGDKIEAVFANNDDMALGAIEALKSAGYFTGNKYIPVVGVDATAPGIQAIKDGTLLGTVLNDAKNQAKATFNIAYELAQGITPTKDNIGYDITDGKYVWIPYKKITKDNISDAEQGGSHHHHHH | 328 | 3 | 4.1 | 3.2 | 13.1
ttGGBP182C.4: affinity-tuning mutant, 182C background, SEQ ID NO: 98 (protein, ttGGBP182C.4 (affinity-tuning mutant, 182C background (Table 6) with signal peptide replaced with M and GGSHHHHHH at C-terminus)) MKQLNIGVAIYKFDDTFMTGVRNAMTAEAQGKAKLNMVDSQNSQPTQNDQVDLFITKKMNALAINPVDRTAAGTIIDKAKQANIPVVFFNREPLPEDMKKWDKVYYVGAKAEQSGILQGQIMADYWKAHPEADKNHDGVMQYVMLMGEPGHQDAILRTQYSIQTVKDAGIKVQELAKDYANCDRVTAHDKMAAWLSSFGDKIEAVFANNDDMALGAIEALKSAGYFTGNKYIPVVGVDATAPGIQAIKDGTLLGTVLNDAKNQAKATFNIAYELAQGITPTKDNIGYDITDGKYVWIPYKKITKDNISDAEQGGSHHHHHH | 347 | 0.6 | 0.8 | 8.1 | 6.5
